Measurements published in patent US9089565B2, “Compositions and methods for causing neurite outgrowth” (MEDICAL RESEARCH COUNCIL, priority 2009, dated 2015).

System: NgR1
Experiment: Phosphorylation of endogenous NgR1 (upper band, immunoblotting) in RA-treated SH-SY5Y cells
Type: cell-based, human
Conditions: BDNF treatment 24 hours
Protocol: FIG. 1. BDNF promotes neurite outgrowth of RA-treated SH-SY5Y, and induces phosphorylation of NgR1. (A) SH-SY5Y cells were incubated with indicated reagents. Cell images were taken with phase contrast microscopy. (B) Number of cells extending neurite-like structures of more than 40 μm and total cell number were counted from images taken in (A). More than 300 cells were examined in each sample. The proportion of cells extending neurite-like structures of more than 40 μm was indicated as a percentage of total cell number. An average of three experiments is shown. Error bars indicate S. E. between experiments. Data were analysed with student's t test. (C) Whole cell extracts were prepared from RA-treated SH-SY5Y cells after incubation with or without BDNF for 24 hours, and were analysed by SDS-PAGE. Immunoblotting was performed with the indicated antibodies. (D) Whole cell extract prepared from cells treated with both RA and BDNF was incubated with the indicated reagents for 1 hour at 37° C. Immunoblotting was performed with anti-NgR1 antibody. (E) RA-treated SH-SY5Y cells were incubated with BDNF in the presence or absence of one of the following: PKC inhibitor—500 nM Gö6983 or Gö6976; PKA inhibitor—2 μM KT5720 or a PKA inhibitor peptide 14-22; or either 500 nM or 1 μM of a casein kinase inhibitor, for 24 hours. Whole cell extracts prepared from these cells were analysed by SDS-PAGE. Immunoblotting was performed with anti-NgR1 antibody.
SH-SY5Y cells were cultured in Ham's F12 medium with 10% foetal bovine serum at 37° C. in 5% CO2 and 95% air. Passage numbers between 15 and 21 were used in experiments described in this paper. Further passages induce spontaneous differentiation and cells tend to extend neurites without BDNF (data not shown). For RA treatment, the cells are seeded (20,000 cells/well) on collagen IV coated 4 well chamber slides. After 24 hours culture, medium was changed to Ham's F12 medium containing 10 μM RA and 10% foetal bovine serum. Medium was changed to fresh medium on day 3 and cells were used for experiments after 5 days culture. Encinas et al. (18) reported that RA-treated SH-SY5Y cells initiate apoptosis after withdrawal of serum only when the cells are cultured at low density. The cell density used in this paper was higher than that in the paper by Encinas et al. (18) and cell death due to depletion of serum or BDNF was not significant. In this paper, the SH-SY5Y cells treated with RA for 5 days are called RA-treated SH-SY5Y. For BDNF treatment, the RA-treated SH-SY5Y cells were washed with serum-free Ham's F12 medium and incubated with 25 ng/ml BDNF in serum-free Ham's F12 medium for 24 hours. As a control (RA alone), the RA-treated SH-SY5Y cells were incubated with serum-free Ham's F12 alone for 24 hours.
Cells were scraped off from dishes and washed with PBS twice, and then resuspended in PBS containing 0.1% Triton X100 and phosphatase inhibitor cocktail (Roche) and EDTA-free protease inhibitor cocktail (Roche). After incubation for 15 min on ice, samples were centrifuged at 14,000×g for 20 min at 4° C. The supernatants containing 30 μg of proteins were analysed by SDS-PAGE and blotted to PVDF membrane. The PVDF membrane was incubated in blocking buffer (5% skimmed milk, 0.4% Triton X-100 in PBS) for 1 hour, first antibody diluted in the blocking buffer and appropriate secondary antibody labelled with horse radish peroxidase. Bound antibodies were visualised with ECL or ECL Plus kit (GE healthcare).

B1: BDNF: brain-derived neurotrophic factor, member of the neurotrophin nerve growth factor family, purchased from Merck (protein, UniProt P23560 19-247, looked up)
Neurotrophic factor BDNF …: APMKEANIRGQGGLAYPGVRTHGTLESVNGPKAGSRGLTSLADTFEHVIEELLDEDQKVRPNEENNKDADLYTSRVMLSSQVPLEPPLLFLLEEYKNYLDAANMSMRVRRHSDPARRGELSVCDSISEWVTAADKKTAVDMSGGTVTVLEKVPVSKGQLKQYFYETKCNPMGYTKEGCRGIDKRHWNSQCRTTQSYVRALTMDSKKRIGWRFIRIDTSCVCTLTIKRGR
For B1, the “upper band of NgR1 (phosphorylated NgR1)” value was “increased”.
